Test results: patent publication US20030113292A1, “Methods of treating viral diseases with il-18 and il-18 combinations” (priority 2000, published 2003)

Columns and labels:
[1] = system: Chimpanzee PBMCs; assay: Mediator induction in chimpanzee PBMCs (ELISA of supernatants); type: cell-based
Protocol: Chimpanzee or human PBMCs were isolated and treated with either control media, human IL-18 at 100 ng/ml, or IL-18 (100 ng/ml) in combination with IL-2 at 3 ng/ml. Supernatants were frozen following incubation for 24, 48, 72, or 96 hours. Mediator levels were analyzed by ELISA. […] Moreover there is synergy between IL-2 and IL-18 at inducing GM-CSF, IL-8, Neopterin, and IFN-gamma (FIGS. 9 and 10). These observations were confirmed in multiple chimp and human donors.
The highest protein levels were detected in samples obtained 96 hours post-treatment, with the exception of IFN-gamma that reached a maximum level at 24 hours.
In this study, treatment with IL-2 alone was used as control.

[2] = system: Hepatitis B Virus (HBV); assay: HBV transgenic mice, liver HBV DNA by Southern blot; type: in vivo; settings: Day 3
Protocol: HBV transgenic mice (Guidotti et. al, 1995. J. Virol 69:6158-6169) were treated with three daily subcutaneous injections (Days 0, 1 and 2) of 4 different doses (100, 10, 1 and 0.1 microgram) of recombinant murine IL-18, with analysis of the liver for HBV DNA on Day 3 by Southern blot.

[3] = system: HSV-1 (SC-16); assay: Lethal systemic HSV infection model; type: in vivo, mice
Protocol: Several studies evaluated the effect of murine IL-18 in a lethal systemic HSV infection model. Murine IL-18 was administered IP at −2 hours, 24 hours, and 48 hours following IP infection with HSV-1 (SC-16). IL-18 treatment at 10-ug/mouse lead to 40% survival in all studies, relative to no survival of vehicle treated animals (FIG. 5). […] In a single study, two daily doses of IL-18 at 100 ug/mouse lead to 70% survival (not shown).

[4] = system: GM-CSF, IFN-gamma, and TNF mRNA; assay: Cytokine mRNA induction in spleens of uninfected mice (quantitative real-time PCR); type: in vivo, Female Balb/C mice
[5] = system: TNF-α, IFN-γ, and GM-CSF; assay: Cytokine protein induction in uninfected mice (ELISA of sera and spleen homogenates); type: in vivo, Female Balb/C mice
[6] = post-treatment, IL-18 100 ng/ml

Molecule	IL-8 induction ([1]; IL-18 100 ng/ml, FIG. 9(a), donor species of FIG. 9 not given) [fold]	Neopterin induction ([1]; IL-18 100 ng/ml, FIG. 9(b), donor species of FIG. 9 not given) [fold]	GM-CSF induction ([1]; IL-18 100 ng/ml, FIG. 9(c), donor species of FIG. 9 not given) [fold]	IFN-gamma induction ([1]; IL-18 100 ng/ml, FIG. 9(d), donor species of FIG. 9 not given) [fold]	inducing cytokine expression in chimp PBMCs ([1]; human IL-18 100 ng/ml, 24-96 hours)	time of highest protein levels (IL-8, Neopterin, GM-CSF) [1, 6] [h]	time of maximum IFN-gamma level [1, 6] [h]	reduction of liver HBV DNA at lowest dose ([2]; 0.1 micrograms sc Days 0, 1, 2)	reduction of liver HBV DNA at higher doses ([2]; 1, 10, 100 microgram sc Days 0, 1, 2)	virus replication (levels of viral DNA in liver) ([2]; three daily sc injections, 100, 10, 1 and 0.1 microgram)	survival ([3]; 10-ug/mouse IP at -2, 24 and 48 hours, vehicle: no survival) [%]	time to death ([3]; all studies)	survival ([3]; two daily doses at 100 ug/mouse, single study, not shown) [%]	IFN γ mRNA induction over vehicle ([4]; 2.5-6 hours post injection, real-time PCR, spleen)	TNF mRNA induction ([4]; quantitative real-time PCR)	GM-CSF mRNA induction relative to vehicle control ([4]; real-time PCR, data not shown)	induction of GM-CSF protein ([5]; IP 10 or 100 ug)	IFN levels in sera and spleens ([5]; IP 10 or 100 ug murine IL-18, by 2.5 hours post-treatment) [ng/mL]	induction of TNF-α protein ([5]; IP 10 or 100 ug, called minimal induction) [pg/mL]
human IL-18: human IL-18, amino acid sequence SEQ ID NO:1; 157 amino acid cytokine, interferon-γ-inducing factor	14	7	100	8	active	96	24												
murine IL-18: murine IL-18, amino acid sequence SEQ ID NO:2; interferon-γ-inducing factor cytokine (protein, listed as Mus musculus) NFGRLHCTTAVIRNINDQVLFVDKRQPVFEDMTDIDQSASEPQTRLIIYMYKDSEVRGLAVTLSVKDSKMSTLSCKNKIISFEEMDPPENIDDIQSDLIFFQKRVPGHNKMEFESSLYEGHFLACQKEDDAFKLILKKKDENGDKSVMFTLTNLHQS								some reduction	greater reductions	dose-dependent reduction	40	delay in time to death	70	up to 20 fold	observed	6-10 fold	no induction	2	100
